{
  "source": "paper PMC10518340",
  "about": "(Signal Transduction and Targeted Therapy, 2023)",
  "binders": {"B1": {"name": "RAPD1P1, peptide from the N-terminal of LRPAP1 (residues 35-53) (peptide)", "peptide": "YSREKNQPKPSPKRESGEE", "notes": "LRPAP1 residues 35-53; also called PAPD1P1; source: synthetic peptide (GenScript Biotech, purity 95%)"}},
  "biological_target": "T1, recombinant extracellular domain of IFNAR1 (ECD-IFNAR1) (UniProt P17181 28-436, RED-tris-NTA 2nd Generation dye on the His-tag (MST only))",
  "T1 construct": "signal peptide in the construct; extracellular domain of IFNAR1, residues 1-436 as printed; the secreted product lacks the signal peptide; source: bought: Sino Biological (13222-H08H)",
  "T1 sequence": "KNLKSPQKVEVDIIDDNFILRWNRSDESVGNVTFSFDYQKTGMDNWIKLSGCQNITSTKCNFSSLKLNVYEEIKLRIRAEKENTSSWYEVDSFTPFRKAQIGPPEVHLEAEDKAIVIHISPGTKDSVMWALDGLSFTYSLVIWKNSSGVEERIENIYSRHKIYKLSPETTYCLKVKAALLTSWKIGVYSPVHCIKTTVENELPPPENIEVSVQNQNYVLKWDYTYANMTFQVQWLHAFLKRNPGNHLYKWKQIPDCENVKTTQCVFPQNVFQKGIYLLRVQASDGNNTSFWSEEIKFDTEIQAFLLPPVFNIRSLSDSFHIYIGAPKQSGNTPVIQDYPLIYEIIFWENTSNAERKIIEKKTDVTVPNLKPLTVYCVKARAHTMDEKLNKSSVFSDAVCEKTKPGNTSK",
  "experiment": "MST; His-tagged ECD-IFNAR1 labelled with RED-tris-NTA 2nd Generation dye for 30 min, mixed with serially diluted LRPAP1 peptides; Monolith NT.115 capillaries; S/N above 5.0 taken as valid binding",
  "settings": "both partners purified",
  "data": [
    {"binder": "B1", "values": [
      {"measurement": "Kd", "value": 11.3, "unit": "nM"}
    ]}
  ]
}
